{"source": "patent US20230405078", "proteins": {"B1": {"name": "recombinant cathepsin S (1183-CY-010, R&D Systems) (protein)", "chain": "QLHKDPTLDHHWHLWKKTYGKQYKEKNEEAVRRLIWEKNLKFVMLHNLEHSMGMHSYDLGMNHLGDMTSEEVMSLMSSLRVPSQWQRNITYKSNPNRILPDSVDWREKGCVTEVKYQGSCGACWAFSAVGALEAQLKLKTGKLVSLSAQNLVDCSTEKYGNKGCNGGFMTTAFQYIIDNKGIDSDASYPYKAMDQKCQYDSKYRAATCSKYTELPYGREDVLKEAVANKGPVSVGVDARHPSFFLYRSGVYYEPSCTQNVNHGVLVVGYGDLNGKEYWLVKNSWGHNFGEEGYIRMARNKGNHCGIASFPSYPEI"}}, "target": "T1, elafin (AS-61641, Anaspec)", "T1 chain": "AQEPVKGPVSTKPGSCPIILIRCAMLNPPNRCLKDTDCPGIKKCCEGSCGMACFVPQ", "data": [{"protein": "B1", "values": [{"measurement": "ERK1/2 phosphorylation and ProCOL1A2 expression in colonic fibroblasts", "result": "reversed elafin-mediated inhibition of ERK1/2 phosphorylation and ProCOL1A2 expression in colonic fibroblasts"}]}]}
